For the experiment, the target named is T1, macrophage migration inhibitory factor (MIF) (human (endogenous in MCF-7)), P14174.
T1 chain: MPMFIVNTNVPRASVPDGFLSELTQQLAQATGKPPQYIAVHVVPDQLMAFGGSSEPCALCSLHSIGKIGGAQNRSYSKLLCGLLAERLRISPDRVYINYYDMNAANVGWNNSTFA
The experiment is described as follows: native MS; native top-down proteomics: whole cell lysates of MCF-7 and MCF-7-EGFR (EGFR-overexpressing) cells fractionated by native SEC, concentrated with molecular weight cutoff filters, direct ESI infusion FAIMS-MSn with HCD, Orbitrap detection; endogenous assemblies. Particulars: remark: other sources report otherwise.

Our source for the stoichiometry N values is publication PMC10402242.

B1: macrophage migration inhibitory factor (MIF), P14174 1-115 (natural protein)
chain: T1 chain
modifications: here or on the partner: proteoforms released from the trimers: unmodified, nitrosylated at C80, acetylated at K77, truncated; phosphorylated subunits also reported (site not given); proteoforms released from the trimers: unmodified, nitrosylated at C80, acetylated at K77, truncated; phosphorylated subunits also reported (site not given)
As to B1, the stoichiometry N (usually a count of units in the complex or per binding partner) is 3.
